From PMC3871807, “Analysis of rice ER-resident J-proteins reveals diversity and functional differentiation of the ER-resident Hsp70 system in plants” (Journal of Experimental Botany, 2013)

T1: OsP58A-FLAG (rice (Oryza sativa), UniProt A0A0P0VG31 29-476)
T1 construct: OsP58A, rice ER-resident J-protein (P58IPK type: two TPR-like regions followed by a J-domain), encoded by Os02g0195300; full-length coding region; also called Os02g0195300; source: protoplasts from rice Oc cells, transfected by electroporation, in extract; not shown: 3x FLAG, C-terminal, kept
T1 sequence (looked up): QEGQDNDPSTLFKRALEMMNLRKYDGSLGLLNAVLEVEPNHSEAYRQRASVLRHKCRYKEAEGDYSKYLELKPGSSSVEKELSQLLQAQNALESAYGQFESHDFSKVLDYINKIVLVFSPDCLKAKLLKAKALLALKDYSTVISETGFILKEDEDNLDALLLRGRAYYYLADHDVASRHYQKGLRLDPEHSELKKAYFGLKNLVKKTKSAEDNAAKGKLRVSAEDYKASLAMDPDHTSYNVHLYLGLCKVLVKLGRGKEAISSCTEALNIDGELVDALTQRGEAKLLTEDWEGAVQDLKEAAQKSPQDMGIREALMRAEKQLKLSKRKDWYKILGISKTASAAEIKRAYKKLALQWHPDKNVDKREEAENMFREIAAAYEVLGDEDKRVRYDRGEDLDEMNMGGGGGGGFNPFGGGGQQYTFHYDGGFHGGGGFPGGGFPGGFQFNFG

T2: OsERdj3B-FLAG (rice (Oryza sativa), UniProt B9FHF3 24-347)
T2 construct: OsERdj3B, rice ER-resident J-protein of 347 amino acid residues (N-terminal J-domain, zinc finger motif, DnaJ C-terminal domain), encoded by Os05g0156500; full-length coding region; also called Os05g0156500; source: protoplasts from rice Oc cells, transfected by electroporation, in extract; not shown: 3x FLAG, C-terminal, kept
T2 sequence (looked up): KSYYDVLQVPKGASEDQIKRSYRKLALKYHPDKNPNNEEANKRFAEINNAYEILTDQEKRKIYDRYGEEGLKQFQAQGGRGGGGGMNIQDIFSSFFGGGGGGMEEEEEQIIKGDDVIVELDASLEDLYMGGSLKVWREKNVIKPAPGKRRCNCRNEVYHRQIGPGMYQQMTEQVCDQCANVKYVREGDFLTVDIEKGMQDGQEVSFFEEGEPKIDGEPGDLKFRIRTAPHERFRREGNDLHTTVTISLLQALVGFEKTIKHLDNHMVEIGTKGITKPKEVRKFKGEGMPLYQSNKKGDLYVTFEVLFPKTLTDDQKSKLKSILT

B1: OsBiP5-HA (natural protein)
chain: not shown
notes: full-length cDNA; The coding region was inserted into the Pro35S-ShΔ:2HA-6His vector; source: protoplasts from rice Oc cells, transfected by electroporation, in extract; not shown: 2x HA, C-terminal, kept; His6, C-terminal, kept
B2: OsBiP1-HA (natural protein)
chain: not shown
notes: as for B1

Legend:
Assay in all cases: co-IP; J-protein-3xFLAG and OsBiP-2HA-6His co-transfected into rice Oc cell protoplasts, overnight at 28 °C; extract in 50 mM TRIS-HCl pH 7.5, 150 mM NaCl, 0.5% Triton X-100; anti-FLAG M2 magnetic beads 2 h at 4 °C; washed with NET buffer (0.1% NP-40); blots with anti-FLAG-HRP and anti-HA-HRP; recovery of BiP-HA over input, relative to BiP1-HA
Settings in all cases: partners not purified
[1] = target: T3, OsERdj3A-FLAG (rice (Oryza sativa), UniProt Q10MW6 26-582)
T3 construct: OsERdj3A, rice ER-resident J-protein (N-terminal J-domain followed by a thioredoxin-like region), encoded by Os03g0293000; also called Os03g0293000; source: protoplasts from rice Oc cells, transfected by electroporation, in extract; not shown: 3x FLAG, C-terminal, kept

[2] = target: T1, OsP58A-FLAG
[3] = target: T2, OsERdj3B-FLAG

T3 sequence (Q10MW6 26-582): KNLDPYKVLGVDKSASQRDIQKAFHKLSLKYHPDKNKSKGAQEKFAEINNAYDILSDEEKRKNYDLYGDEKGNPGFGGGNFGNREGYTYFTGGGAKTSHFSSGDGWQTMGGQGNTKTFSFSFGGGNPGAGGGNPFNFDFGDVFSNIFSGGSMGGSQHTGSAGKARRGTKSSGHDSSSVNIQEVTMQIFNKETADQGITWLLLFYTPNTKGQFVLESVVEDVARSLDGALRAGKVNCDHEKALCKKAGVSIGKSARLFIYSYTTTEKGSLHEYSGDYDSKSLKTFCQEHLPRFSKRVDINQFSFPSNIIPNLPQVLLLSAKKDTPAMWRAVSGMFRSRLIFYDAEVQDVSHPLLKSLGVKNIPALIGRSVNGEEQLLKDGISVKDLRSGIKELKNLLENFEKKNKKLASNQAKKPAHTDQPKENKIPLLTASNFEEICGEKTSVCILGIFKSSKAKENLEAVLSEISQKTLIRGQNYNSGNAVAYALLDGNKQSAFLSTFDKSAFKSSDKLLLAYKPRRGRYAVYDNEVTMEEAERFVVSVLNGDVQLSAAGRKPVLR

Binder	fold higher level than OsBiP1-HA (recovery in co-IP) [1] [fold]	fold higher affinity than OsBiP3-HA (recovery in co-IP) [2] [fold]	fold higher affinity than OsBiP3-HA (recovery in co-IP) [3] [fold]	fold higher affinity than OsBiP5-HA (recovery in co-IP) [3] [fold]
B1	4	–	–	–
B2	–	4	~2	~3
